B1: wild-type α-EGFR antibody (D1.5) (antibody, human IgG1, kappa, V domains shown)
VH: EVQLVESGGGLVQPGGSLRLSCAASGFTFTGNWIHWVRQAPGKGLEWVGEISPSGGYTDYADSVKGRFTISADTSKNTAYLQMNSLRAEDTAVYYCARESRVSYEAAMDYWGQGTLVTVSS
VL: DIQMTQSPSSLSASVGDRVTITCRASQDVSTAVAWYQQKPGKAPKLLIYSASFLYSGVPSRFSGSGSGTDFTLTISSLQPEDFATYYCQQSYPTPYTFGQGTKVEIKR
notes: also called Wt α-EGFR (D1.5); D1.5 anti-EGFR antibody
B2: one-armed α-EGFR engineered antibody (antibody)
heavy: not shown
chain: not shown
light: DIQMTQSPSSLSASVGDRVTITCRASQDVSTAVAWYQQKPGKAPKLLIYSASFLYSGVPSRFSGSGSGTDFTLTISSLQPEDFATYYCQQSYPTPYTFGQGTKVEIKRTVAAPSVFIFPPSDEQLKSGTASVVCLLNNFYPREAKVQWKVDNALQSGNSQESVTEQDSKDSTYSLSSTLTLSKADYEKHKVYACEVTHQGLSSPVTKSFNRGEC
notes: also called 1-armed α-EGFR; One-Armed EGFR

How the values were obtained:
[1] = biological target: T1, EGFR on cells (NR6 expressing EGFR; HCA7) (UniProt P00533 25-1210, limits assumed); assay: equilibrium binding on NR6 cells expressing EGFR, radiolabeled antibody competed with unlabeled antibody
T1 construct: whole, on cells; also called EGFR-NR6; EGFR-expressing NR6 cells

[2] = biological target: T1, EGFR on cells (NR6 expressing EGFR; …); assay: equilibrium binding on HCA7 cells co-expressing EGFR and HER2, radiolabeled antibody competed with unlabeled antibody
HER2 receptor ECD [3] = biological target: T2, HER2 receptor ECD (UniProt P04626 23-652, limits assumed); assay: Octet; antibody loaded on the probe, 1st antigen HER2
T2 construct: extracellular domain; also called HER2ECD; HER2 extracellular domain

HER2 receptor ECD [4] = biological target: T2, HER2 receptor ECD; assay: Octet; loaded probe, 1st antigen HER2

Binder	Kd [1]	Kd [2]	binding result (HER2 receptor ECD [3])	binding result (HER2 receptor ECD [4])
B1	0.56 nM	0.34 nM	no binding	–
B2	1.15 nM	–	–	no binding

— patent US20120302737A1 (Genentech, published 2012)
